Laboratory results published in patent publication US12331310B2, “Cell membrane penetrating conjugates for gene editing” (priority 2019, dated 2025).
Several values for one entry are separate records, joined by “and”; a condition that tells them apart may be missing. Identical values can stand only once.

B1: EfsQNR: recombinant β helical pentapeptide-repeat protein EfsQNR, amino acid sequence SEQ ID NO: 2 (protein)
chain: GSHMKITYPLPPNLPEQLPLLTNCQLEDEAILENHLYQQIDLPNQEVRNLVFRDAVFDHLSLANGQFASFDCSNVRFEACDFSNVEWLSGSFHRVTFLRCNLTGTNFADSYLKDCLFEDCKADYASFRFANFNLVHFNQTRLVESEFFEVTWKKLLLEACDLTESNWLNTSLKGLDFSQNTFERLTFSPNYLSGLKVTPEQAIYLASALGLVIT
modifications: Amino acid sequence of EfsQNR protein
B2: AlbG: recombinant β helical pentapeptide-repeat protein AlbG, amino acid sequence SEQ ID NO: 1 (protein)
chain: MPAKTLESKDYCGESFVSEDRSGQSLESIRFEDCTFRQCNFTEAELNRCKFRECEFVDCNLSLISIPQTSFMEVRFVDCKMLGVNWTSAQWPSVKMEGALSFERCILNDSLFYGLYLAGVKMVECRIHDANFTEADCEDADFTQSDLKGSTFHNTKLTGASFIDAVNYHIDIFHNDIKRARFSLPEAASLLNSLDIELSD
modifications: Amino acid sequence of AlbG protein

Assays:
Format in all cases: cell-based
HeLa cells [1] = assay: Cellular uptake of drug (ruthenium metal complex), monitored by MTT assay; conditions: 24 hours, uptake correlated to cell death by MTT assay
Experimental: Cellular uptake of drug—HeLa cells were used for determining the enhanced uptake of the drug using the cell penetrating conjugate of the present invention. HeLa cells were seeded at a concentration of 10,000 in a 96-well plate and allowed to grow for 6-8 hours. Ruthenium metal complex and EfsQNR were mixed in different ratios of 1:1, 1:2, and 1:3 to form a conjugate, which was subsequently added to the cells. […] The cell death after 24 hours was monitored by MTT assay as described previously and was correlated to the percentage uptake of ruthenium-EfsQNR conjugate by HeLa cells.
FIG. 16 depicts the cellular uptake of the ruthenium metal complex Ru(CO)3Cl glycinate in HeLa cells. The ruthenium metal complex was conjugated with EfsQNR protein to form a conjugate consisting of ruthenium metal complex-EfsQNR. The HeLa cells were treated with the ruthenium metal complex-EfsQNR conjugate as described above (see “Cellular penetration studies” above) and uptake of the complex was detected by checking the viability of the cells by performing MTT assay as described previously. […] Therefore, it can be ascertained that the conjugate comprising EfsQNR protein facilitated 50-fold higher cellular uptake as compared to ruthenium metal complex alone. […]

HeLa cells [2] = assay: MTT toxicity assay of AlbG and EfsQNR proteins; conditions: 30 μM protein; for viability as compared to the control cells: MTT; for absorbance values at 570 nm in MTT assay: triplicates, control wells 1.341-1.413
Experimental: Toxicity assay—The industry-standard MTT assay (ex-Sigma Aldrich) was performed to analyse the toxicity of β-helical protein-cytotoxic drug conjugates against mammalian cells, for example HeLa cells. The cells were cultured by using standard protocol. One million cells were seeded in confocal plates (1 cm dish), grown for 6-8 h. A mixture of the cytotoxic drug and the EfsQNR protein (mixed at a ratio of 2:1) was added to the cells and incubated at room temperature for 15 minutes to 24 h to 72 h. After the incubation, the cells were washed with PBS and treated with MTT and further incubated for 24 hours. The cells were then washed and analysed for absorbance values at 570 nm. Viable cells with active metabolism convert MTT into a purple coloured formazan product with an absorbance maximum near 570 nm. Dead cells cannot convert MTT into formazan therefore, by analysing the absorbance values at 570 nm percentage of viable cells can be calculated for a given protein or any other molecule.
MTT assay as described previously was employed to study toxicity of AlbG and EfsQNR proteins against HeLa cells. For the toxicity assay, samples of Placebo, control, AlbG (30 μM) and EfsQNR (30 μM) were used in triplicates. On observing the values, it can be appreciated that the cells treated with 30 μM of AlbG and 30 μM of EfsQNR display 95% viability as compared to the control cells.
The placebo for this experiment was 20 mM Tris buffer of pH 8.0, whereas, the control considered was only HeLa cells without adding any protein or other substrate.

[3] = system: drug resistant strains of bacteria (Pseudovibrio sp. Ad37/5/13/14 and Enterobacter); assay: Uptake of A-520 labelled proteins in bacteria; conditions: protein labelled with green fluorescent dye (A-520), 10 μM, 24 hours
Experimental: (§1) The uptake of labelled proteins was checked by treating E-coli and yeast (Kluveromyces) cells with different labelled proteins such as AlbG (SEQ ID NO: 1), EfsQNR (SEQ ID NO: 2). E coli or Kluveromyces cells were inoculated and grown overnight until OD reached 0.6. The cells were diluted to 50 times and 3 micromolar labelled protein (conjugate) was added. The cells were further grown under standard growth condition (37° C. shaking condition) for 24 h. The treated cells were then centrifuged and washed in PBS for 3-4 times. Then the cells were dispersed in 100 microliter PBS and then imaged in fluorescence/confocal microscope.
(§2) • Respective bacteria and yeast strains were inoculated the day before the experiment and allowed to grow overnight; • The cells were centrifuged and 2 ml fresh media was added; • 100-200 μL of cells were added to the mixture; • 10 μM of green labelled CPP was added; • Fresh media was added to bring the volume to 1 mL; • After 24 hours the treated cells were centrifuged and washed in PBS 3-4 times; • the cells were dispersed in 100 microliter PBS and then imaged in fluorescence/confocal microscope (FIGS. 25 and 26). […]

[4] = system: yeast cells (Saccharomyces cerevisiae, Kluveromyces marxianus and Candida albicans); assay: Uptake of A-520 labelled proteins in yeast cells; conditions: protein labelled with green fluorescent dye (A-520), 10 μM, 24 hours
Experimental: as §1, §2

[5] = system: plant cells (Arabidopsis); assay: Uptake of A-520 labelled proteins in plant cells; conditions: protein labelled with green fluorescent dye (A-520), 20 μM, 24 hours
Experimental: • Respective bacteria and yeast strains were inoculated the day before the experiment and allowed to grow overnight; • The cells were centrifuged and 2 ml fresh media was added; • 100-200 μL of cells were added to the mixture; • 10 μM of green labelled CPP was added; • Fresh media was added to bring the volume to 1 mL; • After 24 hours the treated cells were centrifuged and washed in PBS 3-4 times; • the cells were dispersed in 100 microliter PBS and then imaged in fluorescence/confocal microscope (FIGS. 25 and 26). Protocol for Uptake in Plant Cells (Arabidopsis): • Plants were grown for 7 days prior to the experiment; • 20 μM of different cell-penetrating proteins such as AlbG (SEQ ID NO: 1), EfsQNR (SEQ ID NO: 2) labelled with a green fluorescent dye (A-520) were added to the plants in buffer [3 plants grown for 7 days] in 500 μL PBS; • The mixture was placed in a growth room for 24 hours under standard growth conditions (kept static in a room of continuous supply of light and 23° C. temperature); • The plants were washed with PBS 3 times and fresh PBS was then added and cells visualized under microscope. Non-coloured cells such as the cells of the roots and stems were chosen for visualisation to avoid interference (FIGS. 23 and 24). […]

zebrafish embryos = assay: Uptake of A-520 labelled proteins in zebrafish embryos; conditions: protein labelled with green fluorescent dye (A-520), 10 μM, 2 h
drosophila embryos = assay: Uptake of A-520 labelled proteins in drosophila embryos; conditions: protein labelled with green fluorescent dye (A-520), 10 μM, 2 h

Molecule	cellular uptake (HeLa cells [1]) [%]	viability as compared to the control cells (HeLa cells [2]) [%]	absorbance values at 570 nm in MTT assay (HeLa cells [2])	uptake observed by confocal laser scanning microscopy [3]	uptake observed by confocal laser scanning microscopy [4]	uptake observed by confocal laser scanning microscopy [5]	uptake observed by confocal laser scanning microscopy (zebrafish embryos)	uptake observed by confocal laser scanning microscopy (drosophila embryos)
NCC(=O)O.[C-]#[O+].[C-]#[O+].[C-]#[O+].[Cl][Ru] [ruthenium metal complex, Ru(CO)3Cl glycinate]	0.5							
B1		95	0.901 and 1.111 and 0.971	taken up	taken up	taken up	taken up	taken up
B2		95	1.03 and 0.932 and 1.002	taken up	taken up	taken up	taken up	taken up
